Assay results taken from US20260265358A1 (BYOMASS, published 2026).
Substitutions are numbered along the chain they refer to. “And” between values parts separate entries of the source, which are not always exact repeats. Identical values can stand only once.

B1: Fab of anti-Activin A antibody Clone C (Fab, V domains shown)
VH: QVQLVQSGAEVKKPGASVKVSCKASGYTFPGYHMHWVRQAPGQGLEWMGVINPSSGDTNYAQKFQGRVTMTRDTSISTAYMELSRLRSDDTAVYYCARARDIAALGLGAFDYWGQGTLVTVSS
VL: EIVLTQSPGTLSLSPGERATLSCRASQSVSSSYLAWYQQKPGQAPRLLIYGASSRAGGIPDRFSGSGSGTDFTLTISRLEPEDFAVYYCQQYVAYPRTFGGGTKVEIK
notes: Fab format; only VH and VL are tied to the clone; also called Fab of Clone C
B2: Fab of anti-Activin A antibody Clone A (Fab, V domains shown)
VH: B1 VH with P30T, H33Y, V50S, D57G, R72T, I76T, S84R, R85S, L105A
VL: B1 VL with S30R, G57T, A94S
notes: Fab format; only VH and VL are tied to the clone; also called Clone A Fab
B3: Fab of anti-Activin A antibody Clone G (Fab, V domains shown)
VH: QVQLVQSGAEVKKPGASVKVSCKASGYTFTSYYIHWVRQAPGQGLEWMGAIYAYSGDTNYAQKLQGRVTMTTDTSTSTAYMELRSLRSDDTAVYYCARARDIAAAGLGAFDYWGQGTLVTVSS
VL: B1 VL with S30R, G57T, V93S, A94N
notes: Fab format; only VH and VL are tied to the clone; also called Clone G Fab
B4: Fab of anti-Activin A antibody Clone I (Fab, V domains shown)
VH: QVQLVQSGAEVKKPGSSVKVSCKASGGTFSNYAISWVRQAPGQGLEWMGYIIPFFGTANYAQKFQGRVTITADESTSTAYMELSSLRSEDTAVYYCARGGSGYSTSWGSSLYWGQGTLVTVSS
VL: B1 VL with S54Y, G57T, Q90L, Y92S, V93G, A94V, Y95F, R97Y
notes: Fab format; only VH and VL are tied to the clone; also called Clone I Fab
B5: Fab of anti-Activin A antibody Clone E (Fab, V domains shown)
VH: B1 VH with P30H, H33N, V50S, S54Y, D57Y, N59I, L105A
VL: B1 VL with S30R, G57T, A94S
notes: Fab format; only VH and VL are tied to the clone; also called Clone E Fab
B6: Fab of anti-Activin A antibody Clone H (Fab, V domains shown)
VH: B3 VH with S31G, Y33H, A50H, Y52S, D57T
VL: B1 VL with S30R, G57T, V93S, A94N
notes: Fab format; only VH and VL are tied to the clone; also called Clone H Fab
B7: Fab of anti-Activin A antibody Clone D (Fab, V domains shown)
VH: B1 VH with P30F, H33S
VL: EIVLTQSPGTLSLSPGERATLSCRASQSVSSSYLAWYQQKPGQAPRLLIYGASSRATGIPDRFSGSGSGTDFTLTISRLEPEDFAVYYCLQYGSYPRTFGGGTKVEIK
notes: Fab format; only VH and VL are tied to the clone; also called Fab of Clone D
B8: Fab of anti-Activin A antibody Clone J (Fab, V domains shown)
VH: B4 VH with Q1E, N31L, Y50G, F54Y
VL: B1 VL with S53F, G57T, Y92S, V93G, A94V, Y95F, R97Y
notes: Fab format; only VH and VL are tied to the clone; also called Clone J Fab
B9: Fab of anti-Activin A antibody Clone Q (Fab, V domains shown)
VH: QVQLVQSGAEVKKPGSSVKVSCKASGGSFSPYTWSWVRQAPGQGLEWMGGIIPISGTANTAQKFQGRVTITADESTSTAYMELSSLRSEDTAVYYCARGGPLSGWRASYYYWGQGTLVTVSS
VL: not shown
notes: Fab format; only VH and VL are tied to the clone; also called Clone Q Fab
B10: Fab of anti-Activin A antibody Clone R (Fab, V domains shown)
VH: B9 VH with W34I, P53L, I54T, T60Y
VL: not shown
notes: Fab format; only VH and VL are tied to the clone; also called Clone R Fab
B11: Fab of anti-Activin A antibody Clone F (Fab, V domains shown)
VH: B3 VH with S31G, Y33H, A40V, A50V, Y52S, A105L
VL: EIVLTQSPATLSVSPGERATLSCRASQSVSSNLAWYQQKPGQAPRLLIYGASDRATGIPARFSGSGSGTEFTLTISSLQSEDFAVYYCIQYSNYPRTFGGGTKVEIK
notes: Fab format; only VH and VL are tied to the clone; also called Clone F Fab
B12: Fab of anti-Activin A antibody Clone O (Fab, V domains shown)
VH: QVQLVQSGAEVKKPGSSVKVSCKASGGTFSNYDINWVRQAPGQGLEWMGGIIPVFGTAAYAQKFQGRVTITADESTSTAYMELSSLRSEDTAVYYCAREARDGYRYAFQHWGQGTLVTVSS
VL: B11 VL with L4M, D53T, I89Q, S92N, Y94W, R96I
notes: Fab format; only VH and VL are tied to the clone; also called Clone O Fab
B13: Fab of anti-Activin A antibody Clone L (Fab, V domains shown)
VH: QVQLQESGPGLVKPSETLSLTCAVSGYSISSGYYWGWIRQPPGKGLEWIGSIYHSGSTYYNPSLKSRVTISVDTSKNQFSLKLSSVTAADTAVYYCAREAGSGYWYLSVYGMDVWGQGTTVTVSS
VL: B11 VL with D53T, I89Q, Y91S, S92D, N93D, Y94W, R96W
notes: Fab format; only VH and VL are tied to the clone; also called Clone L Fab
B14: Fab of anti-Activin A antibody Clone P (Fab, V domains shown)
VH: QVQLVQSGAEVKKPGSSVKVSCKASGGTFDDYAISWVRQAPGQGLEWMGGIIPRFGIANYAQKFQGRVTITADESTSTAYMELSSLRSEDTAVYYCARPPSSGSDWGQGTLVTVSS
VL: DIQMTQSPSSVSASVGDRVTITCRASQGIDSWLAWYQQKPGKAPKLLIYAASSLQSGVPSRFSGSGSGTDFTLTISSLQPEDFATYYCQQVHSFPITFGGGTKVEIK
notes: Fab format; only VH and VL are tied to the clone; also called Clone P Fab
B15: Fab of anti-Activin A antibody Clone M (Fab, V domains shown)
VH: QLQLQESGPGLVKPSETLSLTCTVSGGSISSSDYYWGWIRQPPGKGLEWIGSIYYPANTYYNPSLKSRVTISVDTSKNQFSLKLSSVTAADTAVYYCARGYWNYGMDVWGQGTTVTVSS
VL: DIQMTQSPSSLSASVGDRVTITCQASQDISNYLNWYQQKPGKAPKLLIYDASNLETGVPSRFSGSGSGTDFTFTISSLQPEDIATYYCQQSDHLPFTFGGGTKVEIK
notes: Fab format; only VH and VL are tied to the clone; also called Clone M Fab
B16: Fab of anti-Activin A antibody Clone N (Fab, V domains shown)
VH: B15 VH with N58S
VL: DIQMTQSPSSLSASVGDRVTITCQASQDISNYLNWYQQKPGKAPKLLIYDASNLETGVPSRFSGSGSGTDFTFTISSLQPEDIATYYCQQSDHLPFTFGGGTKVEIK
notes: Fab format; only VH and VL are tied to the clone; also called Clone N Fab
B17: Fab of anti-Activin A antibody Clone K (Fab, V domains shown)
VH: QVQLVQSGAEVKKPGSSVKVSCKASGGTSSSYAISWVRQAPGQGLEWMGYIIPAFGTANYAQKFQGRVTITADESTSTAYMELSSLRSEDTAVYYCARPVRTYPLGKYFYHWGQGTLVTVSS
VL: EIVLTQSPATLSLSPGERATLSCRASQSVSSYLAWYQQKPGQAPRLLIYDASNRATGIPARFSGSGSGTDFTLTISSLEPEDFAVYYCQQDSIFPPYTFGGGTKVEIK
notes: Fab format; only VH and VL are tied to the clone; also called Clone K Fab

Experiments:
[1] = target: T1, biotinylated Human Activin A (human, UniProt P03970 309-424 (pig entry), biotinylated (EZ-Link Sulfo-NHS-Biotinylation Kit)); test: SPR (Biacore 8K), antigen captured, Fab analyte
T1 sequence: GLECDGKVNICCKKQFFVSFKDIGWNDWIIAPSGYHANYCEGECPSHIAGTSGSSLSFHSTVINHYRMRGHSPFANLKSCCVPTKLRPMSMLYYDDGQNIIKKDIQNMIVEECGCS
Description: Kinetic analysis was conducted at 25° C. in HBS-EP+ running buffer (10 mM HEPES pH 7.4, 150 mM NaCl, 3 mM EDTA, 0.05% Surfactant P20) using a Biacore 8K optical biosensor (Cytiva, Marlborough, MA). The sample compartment was maintained at 10° C. for the duration of the experiment. The Biacore 8K can analyze up to 8 separate interactions in a single cycle.
Each experiment cycle began with an injection (300 s at 2 μL/min) overflow cells 1 and 2 of a 1:100 solution of biotin CAPture reagent (Cytiva) in running buffer. This was followed by an injection (45 s at 10.0 μL/min) of biotinylated human ACTIVIN A (5 nM) overflow cell 2. Upon capture of ACTIVIN A to the sensor surface, a single concentration of Fab ranging from 0.111-81.0 nM was injected (300 s at 30 μL/min) overflow cells 1 and 2. The dissociation of the antibodies were monitored for 3420 s. Finally, an injection (120 s at 10 μL/min) of regeneration solution (6 M Guanidine-HCl in 0.25 M NaOH) overflow cells 1 and 2 prepared the sensor surface for another cycle. Several blank buffer samples were injected (300 s at 30 μL/min) overflow cells 1 and 2 throughout the duration of the experiment and used for reference surface subtraction—each were monitored for the same amount of dissociation time (3420 s) and regenerated under the same conditions as those for the Fab sample injections.
The anti-Activin antibodies identified in Example 1 were characterized. First, binding kinetics of the anti-Activin antibodies was assessed with a Surface Plasmon Resonance assay (Biacore).

[2] = target: T2, Human Activin A Fc (human, UniProt P03970 309-424 (pig entry)); test: Octet BLI, Fab, monovalent
T2 construct: also called human Activin A-Fc fusion; human Activin A-Fc antigen; not shown: Fc part
T2 sequence: T1 sequence

Binder	Kd [1]	koff [1]	Kd [2] [nM]	kon [1]
B1	0.0334 nM and 0.0179 nM	4.52e-05 s⁻¹ and 2.74e-05 s⁻¹	0.229	
B2			2.02	
B3	0.0849 nM	0.000124 s⁻¹	1.09	1.46e+06 M⁻¹ s⁻¹
B4	0.0616 nM	7.38e-05 s⁻¹	0.857	1.2e+06 M⁻¹ s⁻¹
B5	0.0779 nM	0.000174 s⁻¹	0.79	2.23e+06 M⁻¹ s⁻¹
B6	0.96 nM	0.000371 s⁻¹	1.86	386000 M⁻¹ s⁻¹
B7	0.00986 nM and 0.00813 nM	3.02e-05 s⁻¹ and 2.16e-05 s⁻¹	0.538	3.06e+06 M⁻¹ s⁻¹ and 2.66e+06 M⁻¹ s⁻¹
B8	0.118 nM			
B9	0.24 nM	0.000175 s⁻¹	1.75	728000 M⁻¹ s⁻¹
B10			2.9	
B11	0.0431 nM	7.26e-05 s⁻¹	0.419	1.68e+06 M⁻¹ s⁻¹
B12			1.92	
B13			4.14	
B14			1.53	
B15			4.53	
B16			4.85	
B17	0.0367 nM	0.000119 s⁻¹	0.925	3.25e+06 M⁻¹ s⁻¹
